Test results published in the Immune Epitope Database (IEDB).
pKd: −log10 of the molar value.

Legend:
Assay in all cases: IEDB peptide-MHC binding, purified MHC/competitive/radioactivity; filed as Kd, often an IC50 or EC50 that approximates it; ≥ and ≤ were set here for values at or beyond the usual limits of such assays
HLA-A*03:01 = target: HLA-A*03:01
HLA-A*11:01 = target: HLA-A*11:01
HLA-A*31:01 = target: HLA-A*31:01
HLA-A*33:01 = target: HLA-A*33:01
HLA-A*68:01 = target: HLA-A*68:01
[1] = source organism: SARS coronavirus Tor2
[2] = source organism: Dengue virus 1 Brazil/97-11/1997
[3] = source organism: Dengue virus 3 Singapore/8120/1995
[4] = source organism: Dengue virus 2 Jamaica/1409/1983
[5] = source organism: Vaccinia virus WR
[6] = source organism: Dengue virus 4 Philippines/H241/1956
[7] = source organism: Dengue virus 3 Martinique/1243/1999
[8] = source organism: Mammarenavirus machupoense

AINSVPWSK
pKd (HLA-A*03:01; [1]): 7.89
pKd (HLA-A*11:01; [1]): 8.73
pKd (HLA-A*31:01; [1]): 5.93
pKd (HLA-A*33:01; [1]): 4.97
pKd (HLA-A*68:01; [1]): 5.75

ALFEPEREK
pKd (HLA-A*03:01; [2]): 7.23

ALILAYSNK
pKd (HLA-A*03:01; [1]): 7.31
pKd (HLA-A*11:01; [1]): 7.71
pKd (HLA-A*31:01; [1]): 5.42
pKd (HLA-A*33:01; [1]): ≤ 4.36
pKd (HLA-A*68:01; [1]): 5.34

AMCLNTFVLK
pKd (HLA-A*03:01; [3]): 8.03
pKd (HLA-A*11:01; [3]): 7.63

AVAPSMTMR
pKd (HLA-A*11:01; [4]): 7.48

AVLSAATETY
pKd (HLA-A*03:01; [5]): 6.63
pKd (HLA-A*11:01; [5]): 6.57
pKd (HLA-A*31:01; [5]): 4.98
pKd (HLA-A*33:01; [5]): 5.06
pKd (HLA-A*68:01; [5]): 5.40

CTDESRDRK
pKd (HLA-A*03:01; [5]): 5.22
pKd (HLA-A*11:01; [5]): 6.66
pKd (HLA-A*31:01; [5]): ≤ 4.26
pKd (HLA-A*33:01; [5]): ≤ 4.11
pKd (HLA-A*68:01; [5]): 6.77

DIKLDAVLDR
pKd (HLA-A*03:01; [5]): ≤ 4.38
pKd (HLA-A*11:01; [5]): ≤ 4.16
pKd (HLA-A*31:01; [5]): 4.75
pKd (HLA-A*33:01; [5]): 6.81
pKd (HLA-A*68:01; [5]): 6.33

DSLLITNTK
pKd (HLA-A*03:01; [5]): 5.57
pKd (HLA-A*11:01; [5]): 6.18
pKd (HLA-A*31:01; [5]): 4.73
pKd (HLA-A*33:01; [5]): 8.29
pKd (HLA-A*68:01; [5]): 7.43

DVKASMLEKY
pKd (HLA-A*03:01; [5]): ≤ 4.61
pKd (HLA-A*11:01; [5]): 5.31
pKd (HLA-A*31:01; [5]): ≤ 4.44
pKd (HLA-A*33:01; [5]): 4.78
pKd (HLA-A*68:01; [5]): 6.25

EDTMTYKCPR
pKd (HLA-A*33:01; [2]): 6.09

EIIGGNDMY
pKd (HLA-A*03:01; [5]): 5.27
pKd (HLA-A*11:01; [5]): ≤ 4.45
pKd (HLA-A*31:01; [5]): ≤ 4.11
pKd (HLA-A*33:01; [5]): ≤ 4.11
pKd (HLA-A*68:01; [5]): 7.26

ELALTDVEK
pKd (HLA-A*03:01; [5]): 5.81
pKd (HLA-A*11:01; [5]): 6.29
pKd (HLA-A*31:01; [5]): 5.01
pKd (HLA-A*33:01; [5]): 5.24
pKd (HLA-A*68:01; [5]): 8.94

ELVTRKCPQK
pKd (HLA-A*03:01; [5]): 5.13
pKd (HLA-A*11:01; [5]): 6.29
pKd (HLA-A*31:01; [5]): ≤ 4.15
pKd (HLA-A*33:01; [5]): ≤ 4.49
pKd (HLA-A*68:01; [5]): 5.85

EMYPRHRYSK
pKd (HLA-A*03:01; [5]): 6.90
pKd (HLA-A*11:01; [5]): 5.95
pKd (HLA-A*31:01; [5]): 5.94
pKd (HLA-A*33:01; [5]): 6.49
pKd (HLA-A*68:01; [5]): 7.56

ETFKIDAVR
pKd (HLA-A*03:01; [5]): ≤ 4.54
pKd (HLA-A*11:01; [5]): 5.56
pKd (HLA-A*31:01; [5]): 6.97
pKd (HLA-A*33:01; [5]): 7.68
pKd (HLA-A*68:01; [5]): 8.79

EVFGSTGDY
pKd (HLA-A*03:01; [5]): 5.50
pKd (HLA-A*11:01; [5]): 7.88
pKd (HLA-A*31:01; [5]): ≤ 4.11
pKd (HLA-A*33:01; [5]): ≤ 4.11
pKd (HLA-A*68:01; [5]): 7.85

EVHWNYKER
pKd (HLA-A*68:01; [6]): 7.82

EYRLRGEAR
pKd (HLA-A*33:01; [4]): 7.35

FLKSGAVVK
pKd (HLA-A*03:01; [5]): 7.87
pKd (HLA-A*11:01; [5]): 6.46
pKd (HLA-A*31:01; [5]): 5.32
pKd (HLA-A*33:01; [5]): 4.71
pKd (HLA-A*68:01; [5]): 7.36

FMEMFFDYNK
pKd (HLA-A*03:01; [5]): 6.26
pKd (HLA-A*11:01; [5]): 7.06
pKd (HLA-A*31:01; [5]): 6.14
pKd (HLA-A*33:01; [5]): 5.65
pKd (HLA-A*68:01; [5]): 6.64

FSNTIQSYK
pKd (HLA-A*03:01; [5]): 7.59
pKd (HLA-A*11:01; [5]): 7.96
pKd (HLA-A*31:01; [5]): 7.11
pKd (HLA-A*33:01; [5]): 5.70
pKd (HLA-A*68:01; [5]): 8.23

FSTSAADIK
pKd (HLA-A*03:01; [5]): 5.66
pKd (HLA-A*11:01; [5]): 6.65
pKd (HLA-A*31:01; [5]): ≤ 4.45
pKd (HLA-A*33:01; [5]): ≤ 4.54
pKd (HLA-A*68:01; [5]): 8.59

GAGLAFSLMK
pKd (HLA-A*11:01; [2]): 7.03

GFFLRKLTSR
pKd (HLA-A*31:01; [7]): 8.87

GISLGLILLK
pKd (HLA-A*03:01; [6]): 7.78
pKd (HLA-A*11:01; [6]): 7.10

GLLNGQGPMK
pKd (HLA-A*03:01; [7]): 8.02

GMSYSMCTGK
pKd (HLA-A*03:01; [4]): 7.51
pKd (HLA-A*11:01; [4]): 6.36

HSGVDVFYK
pKd (HLA-A*11:01; [6]): 6.77

IFSLKDTLKR
pKd (HLA-A*33:01; [7]): 6.49

IMDLHPGAGK
pKd (HLA-A*03:01; [4]): 7.39

ISQGAGWSLK
pKd (HLA-A*03:01; [4]): 6.70
pKd (HLA-A*11:01; [4]): 6.67

ISYDPKFEK
pKd (HLA-A*03:01; [6]): 6.94
pKd (HLA-A*11:01; [6]): 7.00

KAERVIDPR
pKd (HLA-A*31:01; [4]): 7.25

LAMGIMMLK
pKd (HLA-A*03:01; [2]): 7.12
pKd (HLA-A*11:01; [2]): 7.49
pKd (HLA-A*68:01; [2]): 7.69

LMSGKGIGK
pKd (HLA-A*03:01; [4]): 7.12

LTNTTTESR
pKd (HLA-A*68:01; [4]): 7.13

LTYQNKVVK
pKd (HLA-A*03:01; [7]): 7.93
pKd (HLA-A*11:01; [7]): 7.15

MLQGRGPLK
pKd (HLA-A*03:01; [4]): ≥ 9.00
pKd (HLA-A*11:01; [4]): 6.91

RFWELVDKER
pKd (HLA-A*31:01; [6]): 8.28

RFWELVDRER
pKd (HLA-A*31:01; [4]): 9.46

RLGVRATRK
pKd (HLA-A*68:01; source organism: Hepacivirus hominis): ≤ 4.10

RLKMDKLELK
pKd (HLA-A*03:01; [7]): 7.46

RMLNILNGRK
pKd (HLA-A*03:01; [6]): 7.86

RQMEGEGVFK
pKd (HLA-A*03:01; source organism: Dengue virus 2 Peru/IQT2913/1996): 7.62

RVIDPRRCLK
pKd (HLA-A*03:01; [2]): 8.06
pKd (HLA-A*31:01; [2]): 9.12
pKd (HLA-A*68:01; [2]): 7.55

SDGTFKIGLH
pKd (HLA-A*31:01; [8]): ≤ 4.44
pKd (HLA-A*33:01; [8]): ≤ 4.32

SGNDIANCLR
pKd (HLA-A*33:01; [2]): 6.85

STGSQLAKR
pKd (HLA-A*31:01; [2]): 6.67

VQTKPGLFK
pKd (HLA-A*03:01; [4]): 6.84
pKd (HLA-A*11:01; [4]): 6.99

VTFKTAHAK
pKd (HLA-A*03:01; [2]): 8.38
pKd (HLA-A*11:01; [2]): 7.05
pKd (HLA-A*68:01; [2]): 7.36

VTFKVPHAKR
pKd (HLA-A*68:01; [6]): 7.67

YQNKVVKVQR
pKd (HLA-A*33:01; [7]): 6.15
